Test results as given in US20200172619A1 (UNIVERSIT T STUTTGART, published 2020).

B1: Her3N-CD3N-hFc1k (bispecific antibody)
chain 1: QVQLQQSGPGLVKPSQTLSLTCAISGDSVSSNRAAWNWIRQSPSRGLEWLGRTYYRSKWYNDYAQSLKSRITINPDTPKNQFSLQLNSVTPEDTAVYYCARDGQLGLDALDIWGQGTMVTVSSGGGGSGGGGSGGGGSQAGLTQPPAVSVAPGQTASITCGRDNIGSRSVHWYQQKPGQAPVLVVYDDSDRPAGIPERFSGSNYENTATLTISRVEAGDEADYYCQVWGITSDHVVFGGGTKLTVLAAADKTHTCPPCPAPPVAGPSVFLFPPKPKDTLMISRTPEVTCVVVDVSHEDPEVKFNWYVDGVEVHNAKTKPREEQYNSTYRVVSVLTVLHQDWLNGKEYKCKVSNKGLPSSIEKTISKAKGQPREPSVFPLAPSSKSTSGGTAALGCLVKDYFPSDIAVEWESGALTSGVHTFPAVLQSSGLYSLSSVVTVPSSSLGTQTYSCSVMHEALHNHYTQKSVEPKSC
chain 2: DIQMTQSPSSLSASVGDRVTITCRASQDIRNYLNWYQQKPGKAPKLLIYYTSRLHSGVPSRFSGSGSGTDFTFTISSLQPEDIATYYCQQGNTLPWTFGQGTKLEIKRGGGGSGGGGSGGGGSQVQLVQSGAEVKKPGSSVKVSCKASGGTFSGYTMNWVRQAPGQGLEWMGLINPYKGVSTYNGKFKDRVTITADKSTSTAYMELSSLRSEDTAVYYCARSGYYGDSDWYFDVWGQGTLVTVSSSGGGSGGGGSDKTHTCPPCPAPPVAGPSVFLFPPKPKDTLMISRTPEVTCVVVDVSHEDPEVKFNWYVDGVEVHNAKTKPREEQYNSTYRVVSVLTVLHQDWLNGKEYKCKVSNKGLPSSIEKTISKAKGQPREPSVFIFPPSDEQLKSGTASVVCLVNNFYPRDIAVEWEVDNALQSGNSQESVTEQDSKDSTYSLSSTLTLSKADYEKHKVYSCSVMHEALHNHYTQKSFNRGECGGGGSGGGGSGGGGSGTGGSGG
notes: also called scFv3-43-CD3-Hinge-Fc1k
B2: Her3N-CD3C-hFc1k (bispecific antibody)
chain 1: B1 chain 1
chain 2: DKTHTCPPCPAPPVAGPSVFLFPPKPKDTLMISRTPEVTCVVVDVSHEDPEVKFNWYVDGVEVHNAKTKPREEQYNSTYRVVSVLTVLHQDWLNGKEYKCKVSNKGLPSSIEKTISKAKGQPREPSVFIFPPSDEQLKSGTASVVCLVNNFYPRDIAVEWEVDNALQSGNSQESVTEQDSKDSTYSLSSTLTLSKADYEKHKVYSCSVMHEALHNHYTQKSFNRGECGGGGSGGGGSGGGGSGTDIQMTQSPSSLSASVGDRVTITCRASQDIRNYLNWYQQKPGKAPKLLIYYTSRLHSGVPSRFSGSGSGTDFTFTISSLQPEDIATYYCQQGNTLPWTFGQGTKLEIKRGGGGSGGGGSGGGGSQVQLVQSGAEVKKPGSSVKVSCKASGGTFSGYTMNWVRQAPGQGLEWMGLINPYKGVSTYNGKFKDRVTITADKSTSTAYMELSSLRSEDTAVYYCARSGYYGDSDWYFDVWGQGTLVTVSS

Biological target: T1, Her3-Fc fusion protein (human, UniProt P21860 20-643)
T1 construct: also called immobilized Her3-Fc fusion protein; not shown: Fc part not described
Assay: ELISA, immobilized Her3-Fc fusion protein

Row | Binder | EC50
1 | B1 | 1 nM
2 | B2 | 0.1 nM
